{"source": "patent US7976845", "key": {"[1]": {"target": "recombinant gB-CMV polyepitope protein (Human cytomegalovirus (AD169))", "test": "direct ELISA; plate coated with concentrated recombinant protein diluted 1:50; 2F12 at 1:8000; HRP anti-mouse Ig, TMB"}, "[2]": {"target": "recombinant gB-CMV polyepitope protein (Human cytomegalovirus (AD169))", "test": "direct ELISA; plate coated with concentrated recombinant protein diluted 1:100; 2F12 at 1:8000; HRP anti-mouse Ig, TMB"}, "[3]": {"target": "recombinant gB-CMV polyepitope protein (Human cytomegalovirus (AD169))", "test": "direct ELISA; plate coated with concentrated recombinant protein diluted 1:200; 2F12 at 1:8000; HRP anti-mouse Ig, TMB"}, "[4]": {"target": "recombinant gB-CMV polyepitope protein (Human cytomegalovirus (AD169))", "test": "direct ELISA; plate coated with concentrated recombinant protein diluted 1:400; 2F12 at 1:8000; HRP anti-mouse Ig, TMB"}, "[5]": {"target": "recombinant gB-CMV polyepitope protein (Human cytomegalovirus (AD169))", "test": "direct ELISA; plate coated with concentrated recombinant protein diluted 1:800; 2F12 at 1:8000; HRP anti-mouse Ig, TMB"}, "[6]": {"target": "recombinant gB-CMV polyepitope protein (Human cytomegalovirus (AD169))", "test": "direct ELISA; plate coated with concentrated recombinant protein diluted 1:1600; 2F12 at 1:8000; HRP anti-mouse Ig, TMB"}, "[7]": {"target": "recombinant gB-CMV polyepitope protein (Human cytomegalovirus (AD169))", "test": "direct ELISA; plate coated with concentrated recombinant protein diluted 1:3200; 2F12 at 1:8000; HRP anti-mouse Ig, TMB"}, "[8]": {"target": "recombinant gB-CMV polyepitope protein (Human cytomegalovirus (AD169))", "test": "direct ELISA; plate coated with concentrated recombinant protein diluted 1:6400; 2F12 at 1:8000; HRP anti-mouse Ig, TMB"}, "[9]": {"target": "recombinant gB-CMV polyepitope protein (Human cytomegalovirus (AD169))", "test": "direct ELISA; plate coated with concentrated recombinant protein diluted 1:12800; 2F12 at 1:8000; HRP anti-mouse Ig, TMB"}, "[10]": {"target": "recombinant gB-CMV polyepitope protein (Human cytomegalovirus (AD169))", "test": "direct ELISA; plate coated with concentrated recombinant protein diluted 1:25600; 2F12 at 1:8000; HRP anti-mouse Ig, TMB"}, "[11]": {"target": "recombinant gB-CMV polyepitope protein (Human cytomegalovirus (AD169))", "test": "direct ELISA; plate coated with concentrated recombinant protein diluted 1:51200; 2F12 at 1:8000; HRP anti-mouse Ig, TMB"}, "[12]": {"target": "recombinant gB-CMV polyepitope protein (Human cytomegalovirus (AD169))", "test": "direct ELISA; plate coated with concentrated recombinant protein diluted 1:102400; 2F12 at 1:8000; HRP anti-mouse Ig, TMB"}}, "data": [{"substance": "anti-gB monoclonal antibody 2F12 (Abcam, UK)", "values": [{"measurement": "OD", "setting": "[1]", "value": 0.69, "unit": "OD"}, {"measurement": "OD", "setting": "[2]", "value": 0.548, "unit": "OD"}, {"measurement": "OD", "setting": "[3]", "value": 0.408, "unit": "OD"}, {"measurement": "OD", "setting": "[4]", "value": 0.59, "unit": "OD"}, {"measurement": "OD", "setting": "[5]", "value": 0.486, "unit": "OD"}, {"measurement": "OD", "setting": "[6]", "value": 0.379, "unit": "OD"}, {"measurement": "OD", "setting": "[7]", "value": 0.4, "unit": "OD"}, {"measurement": "OD", "setting": "[8]", "value": 0.317, "unit": "OD"}, {"measurement": "OD", "setting": "[9]", "value": 0.249, "unit": "OD"}, {"measurement": "OD", "setting": "[10]", "value": 0.277, "unit": "OD"}, {"measurement": "OD", "setting": "[11]", "value": 0.19, "unit": "OD"}, {"measurement": "OD", "setting": "[12]", "value": 0.144, "unit": "OD"}]}]}
